Laboratory results published in patent US20140072613A1, “Compositions and Methods for Treating Cutaneous Scarring” (priority 2012, published 2014).

Tests used:
Test in all cases: biochemical
Assay type in all cases: biochemical
266 human kinases [1] = target: 266 human kinases (Homo sapiens, UniProt P07949, V804L); details: Ret(V804L)(h); 100 μM
In short: (§1)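 Radiometric filter-binding format: a positively charged substrate takes up radiolabelled phosphate from ATP unless the kinase is inhibited, then is captured on a negatively charged filter membrane. Counts from scintillation are expressed relative to a 100% activity control.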

266 human kinases [2] = target: T1, 266 human kinases (Homo sapiens, UniProt Q99683); details: ASK1(h); 100 μM
T1 sequence (Q99683 1-1374): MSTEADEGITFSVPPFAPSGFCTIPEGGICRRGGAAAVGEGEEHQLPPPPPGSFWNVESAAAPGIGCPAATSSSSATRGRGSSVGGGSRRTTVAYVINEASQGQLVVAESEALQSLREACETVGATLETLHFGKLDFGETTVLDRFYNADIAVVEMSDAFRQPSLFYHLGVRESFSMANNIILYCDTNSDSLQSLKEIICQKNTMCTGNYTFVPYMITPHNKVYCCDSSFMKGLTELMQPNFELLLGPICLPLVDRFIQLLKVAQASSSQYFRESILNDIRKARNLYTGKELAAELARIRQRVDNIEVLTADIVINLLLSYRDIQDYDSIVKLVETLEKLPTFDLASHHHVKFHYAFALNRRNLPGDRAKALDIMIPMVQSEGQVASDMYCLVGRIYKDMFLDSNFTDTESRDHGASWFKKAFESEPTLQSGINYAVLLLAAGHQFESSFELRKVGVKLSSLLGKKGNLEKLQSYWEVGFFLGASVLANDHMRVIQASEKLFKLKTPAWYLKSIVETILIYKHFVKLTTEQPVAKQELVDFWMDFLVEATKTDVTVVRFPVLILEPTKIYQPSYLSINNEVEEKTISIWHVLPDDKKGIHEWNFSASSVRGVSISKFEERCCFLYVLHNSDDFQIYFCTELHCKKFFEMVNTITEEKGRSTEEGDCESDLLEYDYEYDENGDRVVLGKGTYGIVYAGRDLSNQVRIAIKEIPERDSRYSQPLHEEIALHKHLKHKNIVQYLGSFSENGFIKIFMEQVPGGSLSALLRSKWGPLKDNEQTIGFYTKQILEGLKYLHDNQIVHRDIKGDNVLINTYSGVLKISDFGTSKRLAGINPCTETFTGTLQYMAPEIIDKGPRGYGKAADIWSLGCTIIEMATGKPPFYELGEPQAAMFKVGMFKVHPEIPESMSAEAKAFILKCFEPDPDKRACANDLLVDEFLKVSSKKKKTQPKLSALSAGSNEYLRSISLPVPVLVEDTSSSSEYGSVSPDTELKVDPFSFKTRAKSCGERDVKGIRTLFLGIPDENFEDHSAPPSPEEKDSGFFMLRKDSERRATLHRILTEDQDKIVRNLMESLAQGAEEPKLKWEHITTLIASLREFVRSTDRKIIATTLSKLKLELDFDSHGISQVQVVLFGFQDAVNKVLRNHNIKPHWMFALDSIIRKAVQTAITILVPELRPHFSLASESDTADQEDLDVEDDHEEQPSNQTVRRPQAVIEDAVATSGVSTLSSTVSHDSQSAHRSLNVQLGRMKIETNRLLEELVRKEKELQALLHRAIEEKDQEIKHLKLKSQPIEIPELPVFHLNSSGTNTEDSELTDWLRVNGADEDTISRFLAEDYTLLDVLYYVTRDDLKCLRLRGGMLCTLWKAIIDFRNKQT
In short: as §1

266 human kinases [3] = target: 266 human kinases (Homo sapiens, UniProt P17612); details: PKA(h); 100 μM
In short: as §1

266 human kinases [4] = target: T2, 266 human kinases (Homo sapiens, UniProt P29322); details: EphA8(h); 100 μM
T2 sequence (P29322 28-1005): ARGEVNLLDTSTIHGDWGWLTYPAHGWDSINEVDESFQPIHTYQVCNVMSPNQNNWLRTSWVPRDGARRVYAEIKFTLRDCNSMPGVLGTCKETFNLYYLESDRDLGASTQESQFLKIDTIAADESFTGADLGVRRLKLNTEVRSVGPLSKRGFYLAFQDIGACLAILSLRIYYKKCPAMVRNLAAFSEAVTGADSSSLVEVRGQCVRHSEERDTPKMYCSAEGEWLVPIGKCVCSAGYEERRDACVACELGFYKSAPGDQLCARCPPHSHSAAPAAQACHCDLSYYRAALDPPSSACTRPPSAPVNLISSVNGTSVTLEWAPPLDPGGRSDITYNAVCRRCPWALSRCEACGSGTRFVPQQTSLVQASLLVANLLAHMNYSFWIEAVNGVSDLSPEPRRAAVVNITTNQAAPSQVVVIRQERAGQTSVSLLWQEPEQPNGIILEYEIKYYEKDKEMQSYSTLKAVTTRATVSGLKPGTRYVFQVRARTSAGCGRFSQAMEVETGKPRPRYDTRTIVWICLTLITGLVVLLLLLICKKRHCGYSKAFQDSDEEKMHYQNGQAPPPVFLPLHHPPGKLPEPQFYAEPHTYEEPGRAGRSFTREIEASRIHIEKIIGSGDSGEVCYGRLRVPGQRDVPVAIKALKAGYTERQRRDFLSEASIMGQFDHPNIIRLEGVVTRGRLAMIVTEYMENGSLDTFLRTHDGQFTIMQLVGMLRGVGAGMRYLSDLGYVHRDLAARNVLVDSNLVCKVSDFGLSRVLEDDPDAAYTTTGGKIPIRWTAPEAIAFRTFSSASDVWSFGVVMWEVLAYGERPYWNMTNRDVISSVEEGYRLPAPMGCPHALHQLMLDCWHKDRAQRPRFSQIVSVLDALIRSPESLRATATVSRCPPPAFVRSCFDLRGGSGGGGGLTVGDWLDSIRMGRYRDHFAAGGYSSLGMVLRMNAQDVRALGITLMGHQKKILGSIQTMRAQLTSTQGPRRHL
In short: as §1

Row | Sequence | % activity (266 human kinases [1]) | % activity (266 human kinases [2]) | % activity (266 human kinases [3]) | % activity (266 human kinases [4])
1 | HRRIKAWLKKIKALARQLGVAA (mammal) [MMI-0500] | 20% | −4% | 118% | 337%
2 | YARAAARQARAKALNRQLGVA (mammal) [MMI-0200] | 100% | 101% | 110% | 133%
